Test results: publication PMC1810434, “Breakage-Reunion Domain of Streptococcus pneumoniae Topoisomerase IV: Crystal Structure of a Gram-Positive Quinolone Target” (PLoS ONE, 2007)

Target: the molecule itself
Assay: crystal structure; hanging drop vapor diffusion at ambient temperature; space group I222; solved by molecular replacement; asymmetric unit of two biological dimers; wild-type data to 2.7 Å, Cys426 data to 3.25 Å

B1: ParC55, 55.5 kDa N-terminal breakage-reunion domain of Streptococcus pneumoniae topoisomerase IV subunit A (ParC) (domain or fragment)
chain: MSNIQNMSLEDIMGERFGRYSKYIIQDRALPDIRDGLKPVQRRILYSMNKDSNTFDKSYRKSAKSVGNIMGNFHPHGDSSIYDAMVRMSQNWKNREILVEMHGNNGSMDGDPPAAMRYTEARLSEIAGYLLQDIEKKTVPFAWNFDDTEKEPTVLPAAFPNLLVNGSTGISAGYATDIPPHNLAEVIDAAVYMIDHPTAKIDKLMEFLPGPDFPTGAIIQGRDEIKKAYETGKGRVVVRSKTEIEKLKGGKEQIVIIEIPYEINKANLVKKIDDVRVNNKVAGIAEVRDESDRDGLRIAIELKKDANTELVLNYLFKYTDLQINYNFNMVAIDNFTPRQVGIVPILSSYIAHRREVILARSRFDKEKAEKRLHIVEGLIRVISILDEVIALIRASENKADAKENLKVSYDFTEEQAEAIVTLQLYRLTNTDVVVLQEEEAELREKIAMLAAIIGDERTMYNLMKKELREVKKKFATPRLSSLEDTAKALE
notes: ParC (topoisomerase IV subunit A), S. pneumoniae strain 7785, residues 1-490, with the substitution I489L needed for plasmid construction; also called wild-type ParC55; N-terminal ParC domain; source: E. coli, pET29a expression plasmid, purified by Ni2+-NTA chromatography; not shown: His6, C-terminal, kept
Does B1 bind?
Result: binds

B2: ParC55 Cys426 (ParC55 with Arg426 changed to Cys) (domain or fragment)
chain: MSNIQNMSLEDIMGERFGRYSKYIIQDRALPDIRDGLKPVQRRILYSMNKDSNTFDKSYRKSAKSVGNIMGNFHPHGDSSIYDAMVRMSQNWKNREILVEMHGNNGSMDGDPPAAMRYTEARLSEIAGYLLQDIEKKTVPFAWNFDDTEKEPTVLPAAFPNLLVNGSTGISAGYATDIPPHNLAEVIDAAVYMIDHPTAKIDKLMEFLPGPDFPTGAIIQGRDEIKKAYETGKGRVVVRSKTEIEKLKGGKEQIVIIEIPYEINKANLVKKIDDVRVNNKVAGIAEVRDESDRDGLRIAIELKKDANTELVLNYLFKYTDLQINYNFNMVAIDNFTPRQVGIVPILSSYIAHRREVILARSRFDKEKAEKRLHIVEGLIRVISILDEVIALIRASENKADAKENLKVSYDFTEEQAEAIVTLQLYCLTNTDVVVLQEEEAELREKIAMLAAIIGDERTMYNLMKKELREVKKKFATPRLSSLEDTAKALE
notes: PDB 2NOV holds the parent (wild-type ParC55); No entry of its own is named for the Cys426 data set; also called ParC Cys426; Cys426 mutant; source: E. coli, purified by Ni2+-NTA chromatography as for wild-type ParC55
Does B2 bind?
Result: binds
